Measurements: the RNAGym collection of RNA variant scans (doi:10.1073/pnas.2313332121)

B1: TPR t1 (parent)
chain: GACCAAUCUGCCCUCAGAGCUCGAGAACAUCUUCGGAUGCAGAGGAGGCAGGCUUCGGUGGCGCGAUAGCGCCAACGUCCUCAACCUCCAAUGCAUCCCACCACAUGAUGAUGCCUGAAGAGCCUUGGUUUUUUG

Variants of: B1
Assay: polymerase ribozyme fitness, log enrichment relative to wild type (log ratio); higher = more active; in vitro selection for triplet polymerase activity
Outline: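 Input and output libraries were sequenced on Illumina after a single in vitro selection round, run in triplicate on PCR-built, transcribed mutant libraries of each subunit of a heterodimeric triplet polymerase ribozyme. Selection annealed libraries to a biotinylated primer, the partner subunit and triplets, incubated them frozen at −7 °C, then gel-excised extended constructs for streptavidin-bead capture and RT-PCR. Genotypes with ≥10 input reads and ≥1 read per output were kept. Fitness is the logarithm, taken in base 2, of genotype enrichment divided by wild-type enrichment, using inverse-variance-weighted replicate averages.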

Variant | polymerase ribozyme fitness (log ratio)
C20A G35U A100U C114A C115U U130C | -6.44
C20G U32C G48C G120A U130A | -5.95
G19A C79G U81C | -3.95
C20A C79U C97U C124A G127C | -2.63
G19A C72A | -2.12
C20A C72G A95U G113C | -6.92
G19A C70G G113U | -5.75
C20A C62U | -2.95
C20G A41C C73A U78A A84C C123U U133G | -3.7
G19C G110C C114U | -5.66
C20A G65A C94G A105G G110A U125G G128U | -5.13
C20G C49G | -5.11
C20A A50G A74U | -3.16
C20G U32G A90U G93U U109C | -4.13
C20U A24U U32C C85U C101G G110U | -6.93
G19U C62U | -3.18
G19U G36C A75G A111C U132A | -5.05
G19U U55G C114A U131A | 2.05
C20A A43U G113C | -5.17
G19C C79A C89A | -4.61
G19A G52A G113A G127A | -2.38

Variant | polymerase ribozyme fitness (log ratio)
G19A G110U | -3.66
G19A G110A | -2.58
G19A G42A | -3.26
C20G G47C | -5.65
G19A C20A U59C U96A | -5.13
C20G G69U C99A | -4.6
C20A C28A G45U A84U C104A G107U C124U | -5.96
C20A C49A G63A U81A C104U G120C U133A G135U | -4.91
G19U G39C C53U G71U U81A G93U C114A | -4.82
G19U G63A G77U U109A C114U G117C | -6.78
C20A U112A | 0.09
C20A G42C | -4.12
G19C G120A | -1.56
C20A C70A | -4.86
C20A C70G | -5.59
C20G C53U G113U | -0.634
G19U G71C A121U | -2.34
G19A G71C | -3.41
G19A C85U C114G | -2.91
C20A C104A C123G | -4.45
G19C C62G C115U | -4.26

Variant | polymerase ribozyme fitness (log ratio)
G19U C89U C115A | -6.23
G19A C22G A43C G71A C89A U125A | -6.8
G19U C20U | -2.46
G19C A37U A46C C72A C76U C82G C124A | -4.65
C20A U54G C94U | -3.21
C20A C28A G36A C72G A90C G110U | -6.43
C20A G77A G135U | -3.74
G19A G61A | -2.53
G19C C72U A91U G113A | -0.96
G19C G42U G45C C72A C79A C82G | -3.62
C20A G52A G60A C98A C99U A105G C114A | -5.87
G19U G48C C123U | -5.25
C20A C53A C79U G110U | -4.5
C20A G61C U133G | -4.9
C20A G69U C104A | -2.59
G19A G117A | -4.95
G19U G61A C62U C124A U131C | -4.46
C20G G120C | -2.75
C20A A26G U33A | -5.24
C20A C34G C85U A90C G120C | -5.64
G19A U54C C73G C82G C114G G135A | -3.8

Variant | polymerase ribozyme fitness (log ratio)
C20A A90U | -3.71
C20G A43C C53A A119G | -5.03
G19A G60A A90C | -2.74
G19U C70G | -5.52
G19U C70A | -4.07
G19U C70U | -3.23
G19U G39U G48A G63C A111G | -4.79
G19A G48U C49U G69U U78C G93U | -3.08
G19U C20A C72G G77C A91C C94A U106A | -5.31
C20A C22U C49A U92A C115U | -7.22
G19C C94A U130C | -2.66
C20A C86A U112C G117A | -5.64
G19A C101G | -5.15
G19A G69U G127C | -2.66
C20A A37U U54A | -3.54
C20A A26G G63U C99A C104A | -6.09
C20A C73U C97U A121C | -1.59
C20G C88U C114G U130C U132A | -5.66
G19U U55C G61C | -4.04
G19A C76A C89G | -4.06
